Results taken from the supplement of paper PMC9170038.

system: MS2 coat protein; experiment: apparent KD of MS2 coat protein, switch OFF state (with FMN for OFF switches, without FMN for ON switches); designed switch direction (-1 OFF switch, 1 ON switch): -1; higher = weaker reporter binding; settings: FMN input: 0 or 200 uM; Eterna round: R93 (includes R88 designs)
Outline: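 Apparent KD is reported per design as the median of normalised binding-curve fits across its clusters. The RNA switches were made by on-chip transcription from Illumina sequencing clusters. SNAP-549-labelled MS2 coat protein was then added in twofold steps (0.7 or 1.5 nM to 3 µM; 0.8–1.5 h to 10–20 min per step) in 100 mM Tris-HCl pH 7.5, 80 mM KCl, 4 mM MgCl2, without or with constant ligand.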

**Q.** “AAAAAGUCAGGAUAUUCGGAUAGGAAAACGAAAACCUAUCCGAAGAAGGGACAUGAGGAUCACCCAUGUGGAAA [67% Ecls-II - Late G segment 1]” was tested. Which “apparent KD of MS2 coat protein” value did it give?
**A.** The value was 170 nM.

**Q.** “AGCUAGUCAGGAUAUACGAGAAAGAAAGAAGAAGUGAAGGGACAUGAGGAUCACCCAUGUAGAAGGGACUAGCA [Diamond 27]” was tested. Which “apparent KD of MS2 coat protein” value did it give?
**A.** The value was 160 nM.

**Q.** How did the “apparent KD of MS2 coat protein” value turn out when “AAGAACACAGGAUAUACAUGAAAGAAAGAAAAGAAAAGAAAACAUGAGGAUCACCCAUGUAGAAGGGUGUAGAA [EteRNA is fun!]” was run?
**A.** Its value is 532 nM.

**Q.** With “UGCAGGUGAGGAUAUGCGGGCGAGCUAACAUAAGCAUCGAAGCAGAAGGCACAUGAGGAUCACCCAUGUAGUCC [Ex4_Neo]” as the sequence, how does the “apparent KD of MS2 coat protein” value read?
**A.** Its value is 27.2 nM.

**Q.** With “AACAGUACAGGAUAUACAUGAGGAUCACCCAUGUCACACAAAUAAAACAAAAAUAAAAGUAGAAGGGUACUGGA [Ruby 40]” as the sequence, how does the “apparent KD of MS2 coat protein” value read?
**A.** The value was 25.9 nM.

**Q.** With “AGAAAACAUGAGGAUCACCCAUGUGAGGAUAUCGAUGUCCAAAAAAAAGUGCGGGACUCGAGAAGGCACUUGGA [Erbelaed]” as the sequence, how does the “apparent KD of MS2 coat protein” value read?
**A.** The value was 32.5 nM.

**Q.** Which “apparent KD of MS2 coat protein” value does the source give for “AGUAGAUCAGGAUAUACAUAAAUGAUAAUUAUGUAAUUUCUACAUGAGGAUCACCCAUGUAGAAGGGAUCUACA [Ex2 Design 136: Not so Super Stable 24]” here?
**A.** The value was 15.2 nM.

**Q.** How did the “apparent KD of MS2 coat protein” value turn out when “GGUUGGCGAGGAUAUACAUGAGGAUCACCCAUGUGAGAGAAAAAAGUGAGGAGGAGCAGUAGAAGGCGCUGACG [salish99-ex3-19]” was run?
**A.** The value was 147 nM.

**Q.** How did the “apparent KD of MS2 coat protein” value turn out when “GUGUACAGAGGAUAUAUAUGAGCUAGGAAACUAGCAACUUCACAUGAGGAUCACCCAUGUAGAAGGCUGUACAC [Ex2: 720]” was run?
**A.** The value was 14.3 nM.

**Q.** With “GAAAAGUGAGGAUAUACUUUGGGAAAAGAAAAGAUGAUGUUACAUGAGGAUCACCCAUGUAGAAGGCACAAAAA [Mat - Exclusion 2 - Mod - D155]” as the sequence, how does the “apparent KD of MS2 coat protein” value read?
**A.** The value was 38.1 nM.

**Q.** For “CUCUUGUCAGGAUAUAGAAGAAAAGAAAAGAAAGAAAAGAACUAGAAGGGACAUGAGGAUCACCCAUGUAAGAA [EteRNA is fun!]”, which “apparent KD of MS2 coat protein” value is on record?
**A.** Its value is 62.9 nM.

**Q.** Which “apparent KD of MS2 coat protein” value does the source give for “AAAAAGAGAGGAUAUACAUGAGGAUCACCCAUGUGACACAAAAUAAAUAAAAUAAAGUGUAGAAGGCUCAAAAA [65%, Moding Exclusion3-cac2, 20]” here?
**A.** The value was 78.2 nM.

**Q.** “AAAAAACAUGAGGAUCACCCAUGUCAGGAUAUCCGAAAAAAAAAAAAAAAAAAACCUUGGAGAAGGGACAUUCC [Chica Displaced 6 - Jieux - Exclusion 1]” was tested. Which “apparent KD of MS2 coat protein” value did it give?
**A.** Its value is 34.4 nM.

**Q.** Which “apparent KD of MS2 coat protein” value does the source give for “AACAUGUAAGGAUAUCCAAGAAAAGAAAAGAAAGAAAAGAAGGAGAAGGUACAUGAGGAUCACCCAUGUAAGAA [EteRNA is fun!]” here?
**A.** Its value is 18.9 nM.

**Q.** With “GGAUGGGAAGGAUAUACAUGAGGAUCACCCAUGUGAGAGAAAAAAGUGAGAAAGAAAAGUAGAAGGUCUUGUCG [salish99-ex3-85]” as the sequence, how does the “apparent KD of MS2 coat protein” value read?
**A.** The value was 99.1 nM.

**Q.** For “AAAGGACAUGAGGAUCACCCAUGUGAGGAUAUGACGUAAAGAAAGAAAGAAGAAAUCGUCAGAAGGCACACCUA [Mat - Exclusion 1 - Eli mod - D69]”, which “apparent KD of MS2 coat protein” value is on record?
**A.** The value was 36.5 nM.

**Q.** “AGAAAGUCAGGAUAUGCAGAAAAAAAAACGAAAAAAAAACUGCAGAAGGGACAUGAGGAUCACCCAUGUUAAAG [Mat - Exclusion 4 - Mayanna - D129]” was tested. Which “apparent KD of MS2 coat protein” value did it give?
**A.** Its value is 34.9 nM.

**Q.** Which “apparent KD of MS2 coat protein” value does the source give for “AAAAAGGCAGGAUAUGCAUACUCACGGAAAAAAAGGUUGGGACAUGAGGAUCACCCAUGUAGAAGGGCCAAAAA [Dora Explored 14 - Jieux - Exclusion 2]” here?
**A.** Its value is 23.8 nM.

**Q.** Which “apparent KD of MS2 coat protein” value does the source give for “AGUUAGCGAGGAUAUACAUGAGGAUCACCCAUGUGAGAGAAAAAAGUGAGAAAUAAAAGUAGAAGGCGCUAACA [Mat - Exclusion 3 - Eli mod - D69]” here?
**A.** Its value is 361 nM.

**Q.** “AAAACGGCAGGAUAUACAAUUGAGAACUAGAUCGAAAAAAAACAUGAGGAUCACCCAUGUAGAAGGGCCAAAAA [Ex2 Malc#9]” was tested. Which “apparent KD of MS2 coat protein” value did it give?
**A.** The value was 55.3 nM.

**Q.** Which “apparent KD of MS2 coat protein” value does the source give for “AAAAAACAUGAGGAUCACCCAUGUGAGGAUAUGAUGCGAAUAAAGAAAGAAUAAAGCAUCAGAAGGCACAAAAA [Mat - Exclusion 1 - Eli mod - D62]” here?
**A.** Its value is 49.6 nM.

**Q.** For “AUAAAACAUGAGGAUCACCCAUGUGAGGAUAUCUAAAAAGAAAGAAAAAAAAAAAAAAAGAGAAGGCACAAUAA [Amethyst 45]”, which “apparent KD of MS2 coat protein” value is on record?
**A.** The value was 31.8 nM.

**Q.** Which “apparent KD of MS2 coat protein” value does the source give for “AAACCACAUGAGGAUCACCCAUGUCAGGAUAUGAACGAAAUAAAAUAAAAAUAAAAGUUCAGAAGGGACAAAAA [Mat - Exclusion 1 - Eli mod - D16]” here?
**A.** Its value is 48.7 nM.

**Q.** “AAAAAACAUGAGGAUCACCCAUGUAAGGAUAUGCAAAAAAAAAAAAUAAAAAAAAAAAGCAGAAGGUACAUAGA [Starry Exclusion 1.7 (wbt round 1 mod)]” was tested. Which “apparent KD of MS2 coat protein” value did it give?
**A.** The value was 40.6 nM.

**Q.** With “AAAAAUGGAGGAUAUACAUGAGGAUCACCCAUGUGUAACUAUACUAAGCACAAACCAAGUAGAAGGCCAAAAAA [Gilly Gone Silly 10 - Jieux - Exclusion 3]” as the sequence, how does the “apparent KD of MS2 coat protein” value read?
**A.** Its value is 95.3 nM.

**Q.** “GAAAACUGAGGAUAUACUUUGGGAAAAGAAAAGAUGAUGUUACAUGAGGAUCACCCAUGUAGAAGGCAGAAAAA [Default title]” was tested. Which “apparent KD of MS2 coat protein” value did it give?
**A.** Its value is 39.4 nM.

**Q.** With “AAAAAGUGAGGAUAUACAGAUAAAAAAACGAAAAAAAAUCUGUAGAAGGCACAUGAGGAUCACCCAUGUAAAAA [Ex 4 May 3]” as the sequence, how does the “apparent KD of MS2 coat protein” value read?
**A.** Its value is 39 nM.

**Q.** How did the “apparent KD of MS2 coat protein” value turn out when “GAGAGACAUGAGGAUCACCCAUGUGAGGAUAUCGGGAGGAGGAGGAGGAGGAGGAGGACGAGAAGGCACGGAAG [salish99-Ex1-06]” was run?
**A.** The value was 35.3 nM.

**Q.** For “AGUCAUACAGGAUAUACAUGAGGAUCACCCAUGUUUAUCCUAAAAUAAAAAAACUCAUGUAGAAGGGUAUGACA [EX3 214: Super Stable 14]”, which “apparent KD of MS2 coat protein” value is on record?
**A.** Its value is 31.3 nM.

**Q.** “AAAAAGUGAGGAUAUACAUGAGGAUCACCCAUGUGUAUAAAAAAUUACACAAAAGAAAGUAGAAGGCACUAAAA [Ex 3 Summer]” was tested. Which “apparent KD of MS2 coat protein” value did it give?
**A.** Its value is 32 nM.

**Q.** “ACAGUUACAGGAUAUACAUGGAAAAAUAAAAAUAAAAAACUACAUGAGGAUCACCCAUGUAGAAGGGUAACUGA [Ex2 Design 197: Random 12F]” was tested. Which “apparent KD of MS2 coat protein” value did it give?
**A.** The value was 86.9 nM.

**Q.** Which “apparent KD of MS2 coat protein” value does the source give for “AAAAAGAGAGGAUAUGCAGGAGGUAAGGUCGAAAAAAAAAAACAUGAGGAUCACCCAUGUAGAAGGUUUAAAAA [Ecls2-VII]” here?
**A.** The value was 23.9 nM.

**Q.** With “AGAUAGUCAGGAUAUACGAACAAGAAAAAAGACGAGAACGGACAUGAGGAUCACCCAUGUAGAAGGGACUAGCA [Diamond 10]” as the sequence, how does the “apparent KD of MS2 coat protein” value read?
**A.** Its value is 30.2 nM.

**Q.** How did the “apparent KD of MS2 coat protein” value turn out when “AAGAAACGAGGAUAUACAAGAAAGAAAGAAAAGAAAAGAAAACAUGAGGAUCACCCAUGUAGAAGGCGUUAGAA [EteRNA is fun!]” was run?
**A.** Its value is 13.8 nM.

**Q.** Which “apparent KD of MS2 coat protein” value does the source give for “AAAAAACAUGAGGAUCACCCAUGUGAGGAUAUGCAAUAAAAAAUAAAAAUAAAACAUAGCAGAAGGCACACCAA [Amethyst 58]” here?
**A.** Its value is 31.8 nM.

**Q.** With “AGAAUACAUGAGGAUCACCCAUGUGAGGAUAUGCAAAUAAAAAUAAAAUAAAAUAAAUGCAGAAGGCACGAAAG [EX 1 May 22]” as the sequence, how does the “apparent KD of MS2 coat protein” value read?
**A.** The value was 58.2 nM.

**Q.** Which “apparent KD of MS2 coat protein” value does the source give for “AGGAAACAUGAGGAUCACCCAUGUCAGGAUAUUGGAAAGAAAAGAAAAGAAAGAAGAAUAAGAAGGGACAAGAA [Hor-Aha]” here?
**A.** The value was 25.1 nM.

**Q.** Which “apparent KD of MS2 coat protein” value does the source give for “AAGAACCAAGGAUAUACAUGAAAGAAAGAAAAGAAAAGAAAACAUGAGGAUCACCCAUGUAGAAGGUGGUAGAA [EteRNA is fun!]” here?
**A.** The value was 105 nM.

**Q.** How did the “apparent KD of MS2 coat protein” value turn out when “AAAAACGGAGGAUAUACAUGAGGAUCACCCAUGUAAAAAAAAAAAAAGGGAAAAAAAAGUAGAAGGCCGAAAAA [Sekhemrekhutawy Pantjeny]” was run?
**A.** Its value is 71.2 nM.

**Q.** For “AGCUAGUCAGGAUAUACGAACACGUCAAAAGACGUGAAGGGACAUGAGGAUCACCCAUGUAGAAGGGACUAGCA [Mat - Exclusion 2 - JL mod - D24]”, which “apparent KD of MS2 coat protein” value is on record?
**A.** Its value is 114 nM.

**Q.** “GGAAAACAUGAGGAUCACCCAUGUGAGGAUAUUGAAACAAACAAAACAAACAAACAAACAAGAAGGCACAGGAA [Exclusion one redone]” was tested. Which “apparent KD of MS2 coat protein” value did it give?
**A.** The value was 20.1 nM.

**Q.** For “UGCAGGUGAGGAUAUGCGGGCGAUUAAACAUAUAAAUGCAAGCAGAAGGCACAUGAGGAUCACCCAUGUAGUCC [Ex4Try2_Neo]”, which “apparent KD of MS2 coat protein” value is on record?
**A.** The value was 29.6 nM.

**Q.** “AGUUGGCGAGGAUAUACAUGAGGAUCACCCAUGUGAGAGUAAAGAGUGAGAAAGAGAAGUAGAAGGCGCUGACA [Ruby 56]” was tested. Which “apparent KD of MS2 coat protein” value did it give?
**A.** Its value is 180 nM.

**Q.** For “CAAAACAGAGGAUAUACAUGAGGAUCACCCAUGUAAAAAUGUAGAAGGCUGAAACAAACAAGAAGGAAACAAAA [Meechl Ex3 R2 m3]”, which “apparent KD of MS2 coat protein” value is on record?
**A.** The value was 30.1 nM.
